Measured values from article PMC3764190, “Type I-E CRISPR-Cas Systems Discriminate Target from Non-Target DNA through Base Pairing-Independent PAM Recognition”.

How the values were obtained:
[1] = molecular target: T1, Cascade (Type I-E crRNA-guided surveillance complex, crRNA-loaded) (Escherichia coli K12 (expressed in …, UniProt Q46901;P76632;Q46899;Q46898;Q46897 1-502;1-160;2-363;1-224;2-199)); experiment: EMSA; g8C-2A crRNA; slightly reduced affinity; EMSA with 32P-labelled dsDNA; buffer, salt, pH and temperature not stated (as in ref 29); Kd from fraction bound = [Cascade]/(Kd+[Cascade]); conditions: protein: recombinant; copies: 1;2;6;1;1; label: 5'-32P on DNA; guide / target / displaced; DNA blunt duplex
T1 sequence 1: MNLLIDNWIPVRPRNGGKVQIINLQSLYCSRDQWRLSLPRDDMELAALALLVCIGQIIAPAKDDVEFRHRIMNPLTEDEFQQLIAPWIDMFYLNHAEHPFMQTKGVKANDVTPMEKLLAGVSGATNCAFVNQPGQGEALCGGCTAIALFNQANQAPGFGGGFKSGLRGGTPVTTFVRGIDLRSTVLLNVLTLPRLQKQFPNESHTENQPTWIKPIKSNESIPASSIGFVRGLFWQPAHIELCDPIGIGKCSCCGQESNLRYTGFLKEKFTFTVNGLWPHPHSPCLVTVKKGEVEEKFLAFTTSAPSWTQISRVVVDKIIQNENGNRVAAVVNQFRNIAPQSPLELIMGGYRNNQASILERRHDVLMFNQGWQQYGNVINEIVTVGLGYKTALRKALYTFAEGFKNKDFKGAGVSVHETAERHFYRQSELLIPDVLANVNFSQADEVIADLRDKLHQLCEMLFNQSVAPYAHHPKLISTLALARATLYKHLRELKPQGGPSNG
T1 sequence 2: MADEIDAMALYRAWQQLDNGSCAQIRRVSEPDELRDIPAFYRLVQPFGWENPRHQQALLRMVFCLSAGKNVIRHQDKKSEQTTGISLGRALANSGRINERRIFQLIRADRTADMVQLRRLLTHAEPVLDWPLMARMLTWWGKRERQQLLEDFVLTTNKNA
T1 sequence 3: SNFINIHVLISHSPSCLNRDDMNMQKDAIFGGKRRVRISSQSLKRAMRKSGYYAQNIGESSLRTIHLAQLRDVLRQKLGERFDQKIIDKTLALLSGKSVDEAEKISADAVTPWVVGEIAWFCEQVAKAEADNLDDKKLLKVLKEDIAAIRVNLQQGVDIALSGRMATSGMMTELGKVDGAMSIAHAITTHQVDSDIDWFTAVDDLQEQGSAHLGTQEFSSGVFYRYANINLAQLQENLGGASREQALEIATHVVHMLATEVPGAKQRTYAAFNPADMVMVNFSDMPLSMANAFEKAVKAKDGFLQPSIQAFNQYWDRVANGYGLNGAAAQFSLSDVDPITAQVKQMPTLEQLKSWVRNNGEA
T1 sequence 4: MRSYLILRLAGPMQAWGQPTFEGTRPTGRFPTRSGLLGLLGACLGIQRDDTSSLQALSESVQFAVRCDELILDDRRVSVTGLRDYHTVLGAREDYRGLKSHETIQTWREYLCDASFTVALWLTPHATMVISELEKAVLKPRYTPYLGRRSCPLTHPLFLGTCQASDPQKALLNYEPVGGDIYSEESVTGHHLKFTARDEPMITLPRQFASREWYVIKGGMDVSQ
T1 sequence 5: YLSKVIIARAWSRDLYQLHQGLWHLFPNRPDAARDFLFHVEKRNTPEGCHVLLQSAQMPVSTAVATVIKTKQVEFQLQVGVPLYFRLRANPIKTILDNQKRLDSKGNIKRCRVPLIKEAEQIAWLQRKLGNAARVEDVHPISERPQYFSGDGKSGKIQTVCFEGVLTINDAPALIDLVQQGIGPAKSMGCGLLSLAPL

[2] = molecular target: T1, Cascade (Type I-E crRNA-guided …); experiment: EMSA; WT crRNA; EMSA with 32P-labelled dsDNA; buffer, salt, pH and temperature not stated (as in ref 29); Kd from fraction bound = [Cascade]/(Kd+[Cascade]); conditions: protein: recombinant, copies: 1;2;6;1;1, label: 5'-32P on DNA, DNA blunt duplex
[3] = molecular target: T1, Cascade (Type I-E crRNA-guided …); experiment: EMSA; g8G-1T crRNA; EMSA with 32P-labelled dsDNA; buffer, salt, pH and temperature not stated (as in ref 29); Kd from fraction bound = [Cascade]/(Kd+[Cascade]); conditions: protein: recombinant; copies: 1;2;6;1;1; label: 5'-32P on DNA; guide / target / displaced; DNA blunt duplex

Binder	binding result [3]	binding result ([2]; guide / target / displaced)	other results
g8C-2A crRNA + CTT PAM probe (mixed) RNA: AUAAACAGCUGUCUUUCGCUGCUGAGGGUGACGAUCCCGCGAGUUCCCCGCGCCAGCGGGG DNA 1: TTAAAGGCCGCTTTTGCGGGATCGTCACCCTCAGCAGCGAAAGACAGCTTCGGAACGAGGGTAGC DNA 2: GCTACCCTCGTTCCGAAGCTGTCTTTCGCTGCTGAGGGTGACGATCCCGCAAAAGCGGCCTTTAA	–	–	Kd [1]: 60 ± 12 nM
WT g8 crRNA + CAT PAM (ATG) M13 probe (mixed) RNA: AUAAACCGCUGUCUUUCGCUGCUGAGGGUGACGAUCCCGCGAGUUCCCCGCGCCAGCGGGG DNA 1: TTAAAGGCCGCTTTTGCGGGATCGTCACCCTCAGCAGCGAAAGACAGCATCGGAACGAGGGTAGC DNA 2: GCTACCCTCGTTCCGATGCTGTCTTTCGCTGCTGAGGGTGACGATCCCGCAAAAGCGGCCTTTAA	–	–	binding result ([2]; guide RNA / target strand / displaced strand): binds
g8G-1T crRNA + CAT PAM probe (mixed) RNA: AUAAACCUCUGUCUUUCGCUGCUGAGGGUGACGAUCCCGCGAGUUCCCCGCGCCAGCGGGG DNA 1: TTAAAGGCCGCTTTTGCGGGATCGTCACCCTCAGCAGCGAAAGACAGCATCGGAACGAGGGTAGC DNA 2: GCTACCCTCGTTCCGATGCTGTCTTTCGCTGCTGAGGGTGACGATCCCGCAAAAGCGGCCTTTAA	binds	–	–
g8G-1T crRNA + CTT PAM probe (mixed) RNA: AUAAACCUCUGUCUUUCGCUGCUGAGGGUGACGAUCCCGCGAGUUCCCCGCGCCAGCGGGG DNA 1: TTAAAGGCCGCTTTTGCGGGATCGTCACCCTCAGCAGCGAAAGACAGCTTCGGAACGAGGGTAGC DNA 2: GCTACCCTCGTTCCGAAGCTGTCTTTCGCTGCTGAGGGTGACGATCCCGCAAAAGCGGCCTTTAA	binds	–	–
g8G-1T crRNA + CCT PAM probe (mixed) RNA: AUAAACCUCUGUCUUUCGCUGCUGAGGGUGACGAUCCCGCGAGUUCCCCGCGCCAGCGGGG DNA 1: TTAAAGGCCGCTTTTGCGGGATCGTCACCCTCAGCAGCGAAAGACAGCCTCGGAACGAGGGTAGC DNA 2: GCTACCCTCGTTCCGAGGCTGTCTTTCGCTGCTGAGGGTGACGATCCCGCAAAAGCGGCCTTTAA	binds	–	–
g8G-1T crRNA + CTC PAM probe (mixed) RNA: AUAAACCUCUGUCUUUCGCUGCUGAGGGUGACGAUCCCGCGAGUUCCCCGCGCCAGCGGGG DNA 1: TTAAAGGCCGCTTTTGCGGGATCGTCACCCTCAGCAGCGAAAGACAGCTCCGGAACGAGGGTAGC DNA 2: GCTACCCTCGTTCCGGAGCTGTCTTTCGCTGCTGAGGGTGACGATCCCGCAAAAGCGGCCTTTAA	binds	–	–
WT g8 crRNA + CTT PAM (AAG) M13 probe (mixed) RNA: AUAAACCGCUGUCUUUCGCUGCUGAGGGUGACGAUCCCGCGAGUUCCCCGCGCCAGCGGGG DNA 1: TTAAAGGCCGCTTTTGCGGGATCGTCACCCTCAGCAGCGAAAGACAGCTTCGGAACGAGGGTAGC DNA 2: GCTACCCTCGTTCCGAAGCTGTCTTTCGCTGCTGAGGGTGACGATCCCGCAAAAGCGGCCTTTAA	–	binds	–
WT g8 crRNA + CCT PAM (AGG) M13 probe (mixed) RNA: AUAAACCGCUGUCUUUCGCUGCUGAGGGUGACGAUCCCGCGAGUUCCCCGCGCCAGCGGGG DNA 1: TTAAAGGCCGCTTTTGCGGGATCGTCACCCTCAGCAGCGAAAGACAGCCTCGGAACGAGGGTAGC DNA 2: GCTACCCTCGTTCCGAGGCTGTCTTTCGCTGCTGAGGGTGACGATCCCGCAAAAGCGGCCTTTAA	–	binds	–
WT g8 crRNA + CTC PAM (GAG) M13 probe (mixed) RNA: AUAAACCGCUGUCUUUCGCUGCUGAGGGUGACGAUCCCGCGAGUUCCCCGCGCCAGCGGGG DNA 1: TTAAAGGCCGCTTTTGCGGGATCGTCACCCTCAGCAGCGAAAGACAGCTCCGGAACGAGGGTAGC DNA 2: GCTACCCTCGTTCCGGAGCTGTCTTTCGCTGCTGAGGGTGACGATCCCGCAAAAGCGGCCTTTAA	–	binds	–
